Read-outs that look alike come from different tables or passages of the source.

For assay [1], the target named is human Claudin18.2 on Raji cells (human) (UniProt P56856). Description: FACS, Raji cells overexpressing human Claudin18.2, anti-human Fc-PE, MFI.
Assay [2] has as its target human SIRPα on CHO-K1 cells (human) (UniProt P78324). Kind of assay: FACS, CHO-K1 cells overexpressing human SIRPα, anti-human Fc-PE, MFI.
The target of assay [3] is human SIRPα protein (Octet assay) (human) (UniProt P78324). Kind of assay: Octet; antibody on sensor, SIRPα protein in solution.
A further assay has as its target Human SIRPα v1 (human) (UniProt P78324). Description: SPR (Biacore), 1:1 binding model.
For assay [4], the target named is human SIRPα on CHO-K1 cells (human) (UniProt P78324). Kind of assay: FACS, CHO-K1 cells overexpressing human SIRPα, anti-human Fc-PE, MFI. The source holds these as a separate data set.

Human SIRPα v1 (human), sequence (P78324 31-370): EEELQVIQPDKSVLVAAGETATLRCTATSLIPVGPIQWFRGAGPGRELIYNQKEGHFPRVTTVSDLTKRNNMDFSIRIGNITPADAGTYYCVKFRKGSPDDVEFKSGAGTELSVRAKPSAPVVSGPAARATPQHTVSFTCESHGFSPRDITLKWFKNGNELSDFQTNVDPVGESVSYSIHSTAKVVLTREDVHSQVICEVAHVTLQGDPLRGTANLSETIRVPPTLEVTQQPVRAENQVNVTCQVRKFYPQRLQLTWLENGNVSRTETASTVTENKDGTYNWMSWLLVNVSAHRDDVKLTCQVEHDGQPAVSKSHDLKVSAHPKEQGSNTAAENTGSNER

B1: Anti-Claudin18.2/SIRPα bispecific antibody ES028-001 (bispecific antibody, not shown: a dimerising Fc or GST)
light (part 1 of 2): DIVMTQSPDSLAVSLGERATINCKSSQSLLNAGNQKNYLTWYQQKPGQPPKLLIYWSSTRESGVPDRFSGSGSGTDFTLTISSLQAEDVAVYHCQNNYYYPLTFGGGTKLEIK
light (part 2 of 2): GGGGSGGGGSGGGGSQIVLTQSPAIMSASPGEKVTLTCSASSSVSSSYLYWYQQKPGSSPKLWIYSTSNLASGVPARFSGSGSGTSYSLTISSMEAEDAASYFCHQWSSYPYTFGGGTKLEIKGGGGSGGGGSGGGGSGGGGSEVQLQQSGAELVKPGASVKLSCTASGFNIKDYYMHWVKQRTEQGLEWIGRIDPEDGETKYAPKFQGKATITADTSSNTAYLQLSSLTSEDTAVYYCDRGLAYWGQGTLVTVSA
heavy: QVQLVQSGAEVKKPGASVKVSCKASGYTFTNWVHWVRQAPGQGLEWMGEINPTNARSNYNEKFKKRVTMTRDTSTSTVYMELSSLRSEDTAVYYCARIYYGNSFAHWGQGTLVTVSS
Consider B1, for which, in assay [1], the 50% effective concentration (EC50 (read off the curve)) came out at 2 nM. The molecule also had an EC50 (read off the curve) in assay [2] of 0.8 nM. In assay [3], this molecule registered a Kd of 1.51 nM, an off-rate constant (koff) of 0.000271 s⁻¹ and a kon of 179000 M⁻¹ s⁻¹.

B2: Anti-Claudin18.2/SIRPα bispecific antibody ES028-005 (bispecific antibody, not shown: a dimerising Fc or GST)
light: DIVMTQSPDSLAVSLGERATINCKSSQSLLNAGNQKNYLTWYQQKPGQPPKLLIYWSSTRESGVPDRFSGSGSGTDFTLTISSLQAEDVAVYHCQNNYYYPLTFGGGTKLEIK
heavy (part 1 of 2): QVQLVQSGAEVKKPGASVKVSCKASGYTFTNWVHWVRQAPGQGLEWMGEINPTNARSNYNEKFKKRVTMTRDTSTSTVYMELSSLRSEDTAVYYCARIYYGNSFAHWGQGTLVTVSS
heavy (part 2 of 2): GGGGSGGGGSGGGGSQIVLTQSPAIMSASPGEKVTLTCSASSSVSSSYLYWYQQKPGSSPKLWIYSTSNLASGVPARFSGSGSGTSYSLTISSMEAEDAASYFCHQWSSYPYTFGGGTKLEIKGGGGSGGGGSGGGGSGGGGSEVQLQQSGAELVKPGASVKLSCTASGFNIKDYYMHWVKQRTEQGLEWIGRIDPEDGETKYAPKFQGKATITADTSSNTAYLQLSSLTSEDTAVYYCDRGLAYWGQGTLVTVSA
In assay [1], B2 had an EC50 (read off the curve) of 1 nM. The EC50 (read off the curve) in assay [2] is 0.9 nM. In assay [3], this molecule showed a Kd of 1.41 nM, a koff of 0.00047 s⁻¹ and a kon of 334000 M⁻¹ s⁻¹.

B3: Anti-Claudin18.2 antibody hu28.H1L2 (antibody, V domains shown)
VH: QVQLVQSGAEVKKPGASVKVSCKASGYTFTNWVHWVRQAPGQGLEWMGEINPTNARSNYNEKFKKRVTMTRDTSTSTVYMELSSLRSEDTAVYYCARIYYGNSFAHWGQGTLVTVSS
VL: DIVMTQSPDSLAVSLGERATINCKSSQSLLNAGNQKNYLTWYQQKPGQPPKLLIYWSSTRESGVPDRFSGSGSGTDFTLTISSLQAEDVAVYHCQNNYYYPLTFGGGTKLEIK
With B3, the EC50 (read off the curve) in assay [1] was 1 nM.

B4: Humanized anti-SIRPα antibody hu025.021 (antibody, V domains shown)
VH: EVQLVQSGAEVKKPGATVKISCKVSGFNIKDYYMHWVQQAPGKGLEWIGRIDPEDAETKYAPKFQGRVTITADTSTNTAYMELSSLRSEDTAVYYCDRGLAYWGQGTLVTVSS
VL: EIVLTQSPATLSLSPGERATLSCSASSSVSSSYLYWYQQKPGQAPKLWIYSTSNLASGIPARFSGSGSGTDYTLTISSLEPEDFAVYYCHQWSSYPYTFGQGTKLEIK
Regarding B4, in the assay with Human SIRPα v1 (human), the Kd was 3.05 nM, the koff amounted to 0.00183 s⁻¹ and the kon worked out at 599000 M⁻¹ s⁻¹.

B5: Humanized anti-SIRPα antibody hu025.023 (antibody, V domains shown)
VH: EVQLVQSGAEVKKPGATVKISCKVSGFNIKDYYMHWVQQAPGKGLEWIGRIDPEDAETKYAPKFQGRVTITADTSTNTAYMELSSLRSEDTAVYYCDRGLAYWGQGTLVTVSS
VL: EIVLTQSPATLSLSPGERATLSCSASSSVSSSYLYWYQQKPGQAPKLWIYSTSNLASGIPARFSGSGSGTDFTLTISSLEPEDFAVYYCHQWSSYPYTFGQGTKLEIK
In the case of B5, in the assay with Human SIRPα v1 (human), the Kd stood at 2.67 nM, the koff was found to be 0.00172 s⁻¹ and the kon is 643000 M⁻¹ s⁻¹.

B6: Humanized anti-SIRPα antibody hu025.060 (antibody, V domains shown)
VH: EVQLVQSGAEVKKPGATVKISCKASGFNIKDYYMHWVQQAPGKGLEWIGRIDPEDAETKYAPKFQGRVTITADTSTNTAYMELSSLRSEDTAVYYCDRGLAYWGQGTLVTVSS
VL: EIVLTQSPATLSLSPGERATLSCSASSSVSSSYLYWYQQKPGQAPKLWIYSTSNLASGIPARFSGSGSGTDFTLTISSLEPEDFAVYYCHQWSSYPYTFGQGTKLEIK
B6: in the assay with Human SIRPα v1 (human), the Kd was found to be 1.99 nM, the off-rate (koff) was 0.00111 s⁻¹ and the association rate constant (kon) stood at 560000 M⁻¹ s⁻¹.

B7: Humanized anti-SIRPα antibody hu025.059 (antibody, V domains shown)
VH: EVQLVQSGAEVKKPGATVKISCKASGFNIKDYYMHWVQQAPGKGLEWIGRIDPEDAETKYAPKFQGRVTITADTSTNTAYMELSSLRSEDTAVYYCDRGLAYWGQGTLVTVSS
VL: EIVLTQSPATLSLSPGERATLSCSASSSVSSSYLYWYQQKPGQAPKLWIYSTSNLASGIPARFSGSGSGTDYTLTISSLEPEDFAVYYCHQWSSYPYTFGQGTKLEIK
On to B7, for which, in the assay with Human SIRPα v1 (human), the dissociation constant (Kd) worked out at 2.29 nM, the off-rate constant (koff) was determined as 0.00123 s⁻¹ and the kon was 536000 M⁻¹ s⁻¹.

B8: Anti-SIRPα antibody C25 (antibody, V domains shown)
VH: EVQLQQSGAELVKPGASVKLSCTASGFNIKDYYMHWVKQRTEQGLEWIGRIDPEDGETKYAPKFQGKATITADTSSNTAYLQLSSLTSEDTAVYYCDRGLAYWGQGTLVTVSA
VL: QIVLTQSPAIMSASPGEKVTLTCSASSSVSSSYLYWYQQKPGSSPKLWIYSTSNLASGVPARFSGSGSGTSYSLTISSMEAEDAASYFCHQWSSYPYTFGGGTKLEIK
Turning to B8, the EC50 (read off the curve) amounted to 0.3 nM in assay [4] and 0.5 nM in assay [2]. Besides, the Kd was determined as 1.53 nM in the assay with Human SIRPα v1 (human) and 2.12 nM in assay [3]. The koff is 0.000924 s⁻¹ in the assay with Human SIRPα v1 (human) and 0.00109 s⁻¹ in assay [3]. In addition, the kon turned out to be 602000 M⁻¹ s⁻¹ with Human SIRPα v1 (human) and 512000 M⁻¹ s⁻¹ in assay [3].

B9: Anti-PDL1/SIRPα bispecific antibody ES019-024 (bispecific antibody, not shown: a dimerising Fc or GST)
light: QIVLTQSPAIMSASPGEKVTLTCSASSSVSSSYLYWYQQKPGSSPKLWIYSTSNLASGVPARFSGSGSGTSYSLTISSMEAEDAASYFCHQWSSYPYTFGGGTKLEIK
heavy (part 1 of 2): EVQLQQSGAELVKPGASVKLSCTASGFNIKDYYMHWVKQRTEQGLEWIGRIDPEDGETKYAPKFQGKATITADTSSNTAYLQLSSLTSEDTAVYYCDRGLAYWGQGTLVTVSA
heavy (part 2 of 2): EVQVVESGGGLVQSGGSLKLSCAGSGFTESAGFMVWHRQVPGKERELVALIATPSGSTNYADSVKGRFTISRDNGKNTVYLQMNSLKPEDTAVYYCNIRGYWGQGTLVTVSS
B9 had an EC50 (read off the curve) in assay [4] of 0.3 nM.

B10: Anti-Claudin18.2/SIRPα bispecific antibody ES028-009 (bispecific antibody, not shown: a dimerising Fc or GST)
light (part 1 of 2): QIVLTQSPAIMSASPGEKVTLTCSASSSVSSSYLYWYQQKPGSSPKLWIYSTSNLASGVPARFSGSGSGTSYSLTISSMEAEDAASYFCHQWSSYPYTFGGGTKLEIK
light (part 2 of 2): GGGGSGGGGSGGGGSDIVMTQSPDSLAVSLGERATINCKSSQSLLNAGNQKNYLTWYQQKPGQPPKLLIYWSSTRESGVPDRFSGSGSGTDFTLTISSLQAEDVAVYHCQNNYYYPLTFGGGTKLEIKGGGGSGGGGSGGGGSGGGGSQVQLVQSGAEVKKPGASVKVSCKASGYTFTNWVHWVRQAPGQGLEWMGEINPTNARSNYNEKFKKRVTMTRDTSTSTVYMELSSLRSEDTAVYYCARIYYGNSFAHWGQGTLVTVSS
heavy: EVQLQQSGAELVKPGASVKLSCTASGFNIKDYYMHWVKQRTEQGLEWIGRIDPEDGETKYAPKFQGKATITADTSSNTAYLQLSSLTSEDTAVYYCDRGLAYWGQGTLVTVSA
As to B10, the concentration for a half-maximal effect (EC50 (read off the curve)) in assay [2] is 0.5 nM. In assay [3], this molecule displayed a Kd of 2.44 nM, a koff of 0.00133 s⁻¹ and a kon of 544000 M⁻¹ s⁻¹.

B11: Anti-Claudin18.2/SIRPα bispecific antibody ES028-013 (bispecific antibody, not shown: a dimerising Fc or GST)
light: QIVLTQSPAIMSASPGEKVTLTCSASSSVSSSYLYWYQQKPGSSPKLWIYSTSNLASGVPARFSGSGSGTSYSLTISSMEAEDAASYFCHQWSSYPYTFGGGTKLEIK
heavy (part 1 of 2): EVQLQQSGAELVKPGASVKLSCTASGFNIKDYYMHWVKQRTEQGLEWIGRIDPEDGETKYAPKFQGKATITADTSSNTAYLQLSSLTSEDTAVYYCDRGLAYWGQGTLVTVSA
heavy (part 2 of 2): GGGGSGGGGSGGGGSDIVMTQSPDSLAVSLGERATINCKSSQSLLNAGNQKNYLTWYQQKPGQPPKLLIYWSSTRESGVPDRFSGSGSGTDFTLTISSLQAEDVAVYHCQNNYYYPLTFGGGTKLEIKGGGGSGGGGSGGGGSGGGGSQVQLVQSGAEVKKPGASVKVSCKASGYTFTNWVHWVRQAPGQGLEWMGEINPTNARSNYNEKFKKRVTMTRDTSTSTVYMELSSLRSEDTAVYYCARIYYGNSFAHWGQGTLVTVSS
Turning to B11, the EC50 (read off the curve) in assay [2] was determined as 0.5 nM.

B12: Anti-PDL1/SIRPα bispecific antibody ES019-026 (bispecific antibody, not shown: small tags and cut ends; a dimerising Fc or GST)
light (part 1 of 2): EVQVVESGGGLVQSGGSLKLSCAGSGFTESAGFMVWHRQVPGKERELVALIATPSGSTNYADSVKGRFTISRDNGKNTVYLQMNSLKPEDTAVYYCNIRGYWGQGTLVTVSS
light (part 2 of 2): QIVLTQSPAIMSASPGEKVTLTCSASSSVSSSYLYWYQQKPGSSPKLWIYSTSNLASGVPARFSGSGSGTSYSLTISSMEAEDAASYFCHQWSSYPYTFGGGTKLEIK
heavy: EVQLQQSGAELVKPGASVKLSCTASGFNIKDYYMHWVKQRTEQGLEWIGRIDPEDGETKYAPKFQGKATITADTSSNTAYLQLSSLTSEDTAVYYCDRGLAYWGQGTLVTVSA
Molecule B12 registered an EC50 (read off the curve) in assay [4] of 0.4 nM.

The values are drawn from patent publication US20240336686A1.
